B1: OPR3: OPR3 (tomato) recombinant OYE, expression clone from TU-Graz (protein, UniProt Q9FEW9 1-396, looked up)
12-oxophytodienoate reductase …: MASSAQDGNNPLFSPYKMGKFNLSHRVVLAPMTRCRALNNIPQAALGEYYEQRATAGGFLITEGTMISPTSAGFPHVPGIFTKEQVREWKKIVDVVHAKGAVIFCQLWHVGRASHEVYQPAGAAPISSTEKPISNRWRILMPDGTHGIYPKPRAIGTYEISQVVEDYRRSALNAIEAGFDGIEIHGAHGYLIDQFLKDGINDRTDEYGGSLANRCKFITQVVQAVVSAIGADRVGVRVSPAIDHLDAMDSNPLSLGLAVVERLNKIQLHSGSKLAYLHVTQPRYVAYGQTEAGRLGSEEEEARLMRTLRNAYQGTFICSGGYTRELGIEAVAQGDADLVSYGRLFISNPDLVMRIKLNAPLNKYNRKTFYTQDPVVGYTDYPFLQGNGSNGPLSRL
B2: YqjM: Homologous OYE from Bacillus subtilis (similarity: 80%), expression clone from TU-Graz (protein, UniProt P54550 2-338, looked up)
NADPH dehydrogenase: ARKLFTPITIKDMTLKNRIVMSPMCMYSSHEKDGKLTPFHMAHYISRAIGQVGLIIVEASAVNPQGRITDQDLGIWSDEHIEGFAKLTEQVKEQGSKIGIQLAHAGRKAELEGDIFAPSAIAFDEQSATPVEMSAEKVKETVQEFKQAAARAKEAGFDVIEIHAAHGYLIHEFLSPLSNHRTDEYGGSPENRYRFLREIIDEVKQVWDGPLFVRVSASDYTDKGLDIADHIGFAKWMKEQGVDLIDCSSGALVHADINVFPGYQVSFAEKIREQADMATGAVGMITDGSMAEEILQNGRADLIFIGRELLRDPFFARTAAKQLNTEIPAPVQYERGW

Columns and labels:
[1] = Reduction of carvone to dihydrocarvone; format: biochemical; conditions: cyclohexenone and carvone as substrates
Protocol: The sample for the reduction reaction contained: 500 μL protein solution+(+)Carvone (˜1.5 μL)+200 μL GDH 102 (10 mg/mL) and Glucose (200 mM)+100 μL NADPH (10 mM). The final volume of the reaction was 800 μL. The reaction was carried out for 24 h at various temperatures (see table 2).

[2] = Reductase activity using cyclohexenone as substrate; format: biochemical; conditions: for reductase activity (saturation of cyclohexenone): 30, 50, and 70° C.
Protocol: (§1) The desaturation reaction was carried out using cyclohexanone with all three enzymes at 30, 50, and 70° C. The reductase activity using cyclohexenone as substrate was also measured under similar conditions.

[3] = Desaturation of cyclohexanone to cyclohex-2-enone and phenol; conditions: 30, 50, and 70° C.
Protocol: The reaction sample contained 500 μL protein solution and 10 mM Cyclohexanone (˜1 μL). The final volume of the reaction was ˜500 μL. The reaction was carried out at 70° C. for 24 hours.
as §1

[4] = GkOYE-catalyzed desaturation of testosterone to boldenone (HPLC/MS); format: biochemical; conditions: 30-70° C., varied in 5° C. increments

| Molecule | stereoselectivity of reductase activity [1] | reductase activity (saturation of cyclohexenone) [2] | desaturation of cyclohexanone [3] | testosterone hydroxylation or desaturation (oxidized testosterone derivative) [4] | enone reductase activity ([2]; 70° C.) |
| --- | --- | --- | --- | --- | --- |
| B1 | comparable to GkOYE | almost inactive at 50 °C | no desaturation was observed |  |  |
| B2 | comparable to GkOYE | significantly reduced reductase activity | no desaturation was observed | no oxidized testosterone derivative is detected | demonstrated |

— patent US20090117613A1, “Method for redox reaction using an old yellow enzyme” (priority 2007, published 2009)
